Assay results from publication PMC3154093 (Science (New York, N.Y.), 2011).

Tests used:
glypican-2-AP = molecular target: T1, glypican-2-AP (UniProt Q8BKV1 22-556, heparan sulfate glycosaminoglycan chains); assay: solid-phase binding assay
T1 sequence (looked up): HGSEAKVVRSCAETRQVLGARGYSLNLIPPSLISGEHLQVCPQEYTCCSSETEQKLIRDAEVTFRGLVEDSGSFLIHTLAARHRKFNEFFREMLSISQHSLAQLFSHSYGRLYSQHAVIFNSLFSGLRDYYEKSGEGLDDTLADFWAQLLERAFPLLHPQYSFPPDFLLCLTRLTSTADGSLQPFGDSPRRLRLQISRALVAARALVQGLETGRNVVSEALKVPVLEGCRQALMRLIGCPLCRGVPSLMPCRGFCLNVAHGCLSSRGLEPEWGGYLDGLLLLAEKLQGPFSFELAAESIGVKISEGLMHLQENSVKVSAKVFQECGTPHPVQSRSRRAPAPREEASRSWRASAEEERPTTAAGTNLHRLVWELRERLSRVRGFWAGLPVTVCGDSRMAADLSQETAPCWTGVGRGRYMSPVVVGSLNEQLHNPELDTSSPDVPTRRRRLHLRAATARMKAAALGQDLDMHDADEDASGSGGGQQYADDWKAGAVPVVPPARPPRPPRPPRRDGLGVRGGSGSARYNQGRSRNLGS

[1] = molecular target: Neurocan-alkaline phosphatase (UniProt P55066 23-1268, chondroitin sulfate glycosaminoglycan chains); assay: solid-phase binding assay
Chain of Neurocan-alkaline phosphatase (P55066 23-1268): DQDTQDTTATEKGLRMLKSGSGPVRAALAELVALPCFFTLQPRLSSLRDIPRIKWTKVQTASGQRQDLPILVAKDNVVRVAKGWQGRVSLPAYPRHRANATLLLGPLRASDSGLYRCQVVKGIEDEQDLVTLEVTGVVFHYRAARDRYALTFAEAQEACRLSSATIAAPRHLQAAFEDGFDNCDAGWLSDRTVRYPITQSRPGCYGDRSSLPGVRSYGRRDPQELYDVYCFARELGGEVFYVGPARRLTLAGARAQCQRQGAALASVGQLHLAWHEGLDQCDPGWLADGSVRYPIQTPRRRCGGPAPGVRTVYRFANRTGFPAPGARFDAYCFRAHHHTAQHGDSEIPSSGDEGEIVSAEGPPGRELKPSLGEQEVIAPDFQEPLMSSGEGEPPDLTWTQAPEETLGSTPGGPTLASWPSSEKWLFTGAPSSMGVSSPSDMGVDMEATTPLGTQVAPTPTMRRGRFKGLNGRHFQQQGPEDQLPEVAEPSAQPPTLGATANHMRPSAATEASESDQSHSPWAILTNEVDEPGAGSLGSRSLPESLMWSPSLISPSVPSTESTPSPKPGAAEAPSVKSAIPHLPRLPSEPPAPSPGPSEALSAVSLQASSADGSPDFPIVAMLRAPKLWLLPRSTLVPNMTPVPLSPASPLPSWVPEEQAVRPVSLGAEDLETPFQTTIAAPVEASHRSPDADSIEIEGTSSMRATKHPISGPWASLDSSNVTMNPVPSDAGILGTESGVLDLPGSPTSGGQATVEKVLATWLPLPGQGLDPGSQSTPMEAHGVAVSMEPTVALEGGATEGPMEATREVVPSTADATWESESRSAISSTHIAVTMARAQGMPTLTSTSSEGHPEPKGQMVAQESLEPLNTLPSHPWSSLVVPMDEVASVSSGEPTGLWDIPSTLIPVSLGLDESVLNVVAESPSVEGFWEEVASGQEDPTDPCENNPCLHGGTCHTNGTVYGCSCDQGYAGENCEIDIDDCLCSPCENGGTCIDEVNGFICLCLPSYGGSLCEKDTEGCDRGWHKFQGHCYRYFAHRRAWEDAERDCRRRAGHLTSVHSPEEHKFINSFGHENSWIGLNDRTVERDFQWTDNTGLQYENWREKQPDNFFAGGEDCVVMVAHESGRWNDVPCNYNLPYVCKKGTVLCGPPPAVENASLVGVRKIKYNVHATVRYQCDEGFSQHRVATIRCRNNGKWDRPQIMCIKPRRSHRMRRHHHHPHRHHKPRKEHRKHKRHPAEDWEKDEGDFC

- Kd (glypican-2-AP): ~10 nM
- Kd [1]: ~21 nM
B1: mouse RPTPσ sEcto-Fc (Fc fusion)
chain: EEPPRFIREPKDQIGVSGGVASFVCQATGDPKPRVTWNKKGKKVNSQRFETIDFDESSGAVLRIQPLRTPRDENVYECVAQNSVGEITIHAKLTVLREDQLPPGFPNIDMGPQLKVVERTRTATMLCAASGNPDPEITWFKDFLPVDPSASNGRIKQLRSGALQIESSEETDQGKYECVATNSAGVRYSSPANLYVRVRRVAPRFSILPMSHEIMPGGNVNITCVAVGSPMPYVKWMQGAEDLTPEDDMPVGRNVLELTDVKDSANYTCVAMSSLGVIEAVAQITVKSLPKAPGTPVVTENTATSITVTWDSGNPDPVSYYVIEYKSKSQDGPYQIKEDITTTRYSIGGLSPNSEYEIWVSAVNSIGQGPPSESVVTRTGEQAPASAPRNVQARMLSATTMIVQWEEPVEPNGLIRGYRVYYTMEPEHPVGNWQKHNVDDSLLTTVGSLLEDETYTVRVLAFTSVGDGPLSDPIQVKTQQGVPGQPMNLRAEAKSETSIGLSWSAPRQESVIKYELLFREGDRGREVGRTFDPTTAFVVEDLKPNTEYAFRLAARSPQGLGAFTAVVRQRTLQAISPKNFKVKMIMKTSVLLSWEFPDNYNSPTPYKIQYNGLTLDVDGRTTKKLITHLKPHTFYNFVLTNRGSSLGGLQQTVTARTAFNMLSGKPSVAPKPDNDGFIVVYLPDGQSPVTVQNYFIVMVPLRKSRGGQFPVLLGSPEDMDLEELIQDISRLQRRSLRHSRQLEVPRPYIAARFSILPAVFHPGNQKQYGGFDNRGLEPGHRYVLFVLAVLQKNEPTFAASPFSDPFQLDNPDPQPIVDGEEG
